Measurements taken from IntAct's records for PubMed 18826409.

B1: Regulator of sigma D (Escherichia coli (strain K12)), P0AFX4 (parent)
chain: MLNQLDNLTERVRGSNKLVDRWLHVRKHLLVAYYNLVGIKPGKESYMRLNEKALDDFCQSLVDYLSAGHFSIYERILHKLEGNGQLARAAKIWPQLEANTQQIMDYYDSSLETAIDHDNYLEFQQVLSDIGEALEARFVLEDKLILLVLDAARVKHPA

Variants of: B1
Settings: with rpod_ecoli rpoD

| Variant | effect of a mutation on the interaction |
| --- | --- |
| MLNQLDNLTERVRGSNKLVDRWLHVRKHLLVAYYNLVGIKPGKESYMRLNEKALDDFCQSLVDYLSAGHFSIYERILHKLEGNGQLARAAKIWPQLEANTQQIMDYYDSSLETAIDHDNYLEFQQVLSDIGEALEARFVLENKLILLVLDAARVKHPA | disrupting interaction strength |
| MLNQLDNLTERVRGSNKLVDRWLHVRKHLLVAYFNLVGIKPGKESYMRLNEKALDDFCQSLVDYLSAGHFSIYERILHKLEGNGQLARAAKIWPQLEANTQQIMDYYDSSLETAIDHDNYLEFQQVLSDIGEALEARFVLEDKLILLVLDAARVKHPA | increasing interaction strength |

Variants of: B1
Settings: with rpod_ecoli rpoD
Remark: another data set of the same source

| Variant | effect of a mutation on the interaction |
| --- | --- |
| MLNQLDNLTERVRESNKLVDRWLHVRKHLLVAYYNLVGIKPGKESYMRLNEKALDDFCQSLVDYLSAGHFSIYERILHKLEGNGQLARAAKIWPQLEANTQQIMDYYDSSLETAIDHDNYLEFQQVLSDIGEALEARFVLEDKLILLVLDAARVKHPA | increasing interaction strength |
| MLNQLDNLTERVRGSNKLVDRWLHVRKHLLVAYFNLVGIKPGKESYMRLNEKALDDFCQSLVDYLSAGHFSIYERILHKLEGNGQLARAAKIWPQLEANTQQIMDYYDSSLETAIDHDNYLEFQQVLSDIGEALEARFVLEDKLILLVLDAARVKHPA | decreasing interaction strength |
| MLNQLDNLTERVRESNKLVDRWLHVRKHLLVAYFNLVGIKPGKESYMRLNEKALDDFCQSLVDYLSAGHFSIYERILHKLEGNGQLARAAKIWPQLEANTQQIMDYYDSSLETAIDHDNYLEFQQVLSDIGEALEARFVLEDKLILLVLDAARVKHPA | increasing interaction strength |
